What was measured:
DRG neurons = assay: Microarray analysis of gene expression in DRG neurons; type: cell-based; details: DRG neurons that received dbcAMP
Description: The effects of cAMP were the result of its ability to induce gene transcription.

older neurons = details: cAMP levels elevated by treatment, previously established (WO 01/85981); cited from earlier work
[1] = tested on: transected nerve fibers in the spinal cord; details: in vivo injection; previously established (WO 01/85981); cited from earlier work
[2] = tested on: dorsal root ganglia (DRG) neurons; assay: Neurite outgrowth of DRG neurons on MAG-expressing CHO cell monolayers; type: cell-based, rat
Protocol: FIGS. 1A and 1B are a panel of four photographs and a bar graph, respectively, showing that SLPI reverses inhibition by MAG for dorsal root ganglia (“DRG”) neurons. DRG neurons from post-natal day 6 rats were treated with 2, 5, or 10 μg/ml SLPI, plated onto monolayers of either control or MAG-expressing Chinese hamster ovary (“CHO”) cells, and incubated for 16 hours. Neurons were stained for βIII tubulin and neurite length was quantified using the METAMORPH image analysis software. Data are presented ±SEM.

cortical neurons = assay: Neurite outgrowth of cortical neurons on central nervous system myelin; type: cell-based; details: 5 and 10 μg/ml, post-natal day 1 rat cortical neurons on CNS myelin
Protocol: FIGS. 2A and 2B are a panel of four photographs and a bar graph, respectively, showing that SLPI enhances neurite outgrowth on myelin for cortical neurons. Cortical neurons from post-natal day 1 rats were treated with 1 mM dibutyrl cAMP (dbcAMP) and 5 or 10 μg/ml SLPI, and plated onto 8-well chamber slides coated with central nervous system myelin (1 μg per well). Neurons were incubated for 24 hours and immunostained for βIII tubulin. The bar graph depicts average neurite length ±SEM.
Unlike DRG neurons, cortical neurons were inhibited by MAG and myelin at post-natal day 1.

adult DRG neurons = assay: In vivo intrathecal delivery, then neurite outgrowth of adult DRG neurons on MAG-expressing CHO cells; set-up: species or system rat; details: 2 and 5 μg/kg/hr intrathecal for 24 hours in adult rats, neurons plated on MAG-expressing CHO cells
Protocol: FIGS. 3A and 3B are a panel of four photographs and a bar graph, respectively, showing that in vivo delivery of SLPI overcomes MAG inhibition for adult DRG neurons. DRG neurons from adult rats that received infusion of 1, 2, or 5 μg/kg/hr SLPI into the spinal cord for 24 hours were plated onto control or MAG-expressing CHO cells. Neurons were incubated for 16 hours and stained for βIII tubulin. The bar graph depicts average neurite length ±SEM.
SLPI was delivered to the spinal cord by a pump.

optic nerve = assay: Optic nerve crush, GAP-43 staining of regenerating axons; type: in vivo, rat; details: single intravitreal injection of 10 micrograms after optic nerve crush; two weeks; adult male Fischer rats
Protocol: SLPI's ability to promote axonal regeneration in vivo in the optic nerve was investigated. Adult male Fischer rats (200-300 g, Charles River Laboratories) were anesthetized with isofluorane and placed in a stereotaxic frame. Optic nerve crush was performed as follows. The right optic nerve was exposed and the meninges were removed. The nerve was then crushed for 10 seconds with fine forceps at a distance of 2 mm behind the eye. Special care was taken to avoid injury to the opthalmic artery. After closing the incision, the animal received a single intravitreal injection of either 5 microliters sterile saline or 10 micrograms of recombinant human SLPI (R&D Systems; 2 micrograms/microliter in 5 microliters sterile saline) in the right eye. After a two-week post-surgical survival period, the animals were sacrificed by transcardial perfusion with 4% paraformaldehyde and the optic nerves were dissected. Nerves were sectioned at a thickness of 20 microns and thaw-mounted onto gelatin-coated slides. Sections were immunostained for GAP-43 using a polyclonal sheep anti-GAP-43 antibody diluted 1:1000 in a solution of 5% rabbit serum, 2% BSA, and 0.1% Tween in Tris-buffered saline (TBS). […] Slides were coverslipped with Permafluor mounting medium (Thermo) and viewed under fluorescence. […]

[3] = Tolerability on administration to live animals; type: in vivo

Molecule | expression of SLPI (DRG neurons) | inhibition by MAG and myelin of nerve fiber growth (older neurons) | regeneration of transected nerve fibers in the spinal cord [1] | neurite outgrowth on MAG, most effective concentrations ([2]; 5 and 10 μg/ml, post-natal day 6 rat DRG neurons on MAG-expressing CHO cells) | neurite outgrowth on MAG ([2]; post-natal day 6 rat DRG neurons treated with 2, 5 or 10 μg/ml, on MAG-expressing CHO cells, 16 hours) | neurite outgrowth on myelin, effect compared with 1 mM dbcAMP (cortical neurons) | neurite outgrowth on myelin (cortical neurons; 24 hours) | MAG inhibition of DRG neurons after intrathecal delivery (adult DRG neurons) | neurite outgrowth after intrathecal delivery (adult DRG neurons; 16 hours) | GAP-43 positive axons in the crushed optic nerve (optic nerve) | axons extending beyond the lesion site (optic nerve) | toxicity when administered to live animals [3]
CCCC(=O)Nc1ncnc2c1ncn2[C@@H]1O[C@@H]2COP(=O)(O)O[C@H]2[C@H]1OC(=O)CCC [dbcAMP, dibutyrl cAMP] | greatly increased | inhibition was reversed | led to regeneration | – | – | – | – | – | – | – | – | –
secretory leukocyte protease inhibitor (protein, UniProt P03973 26-132, looked up) Antileukoproteinase: SGKSFKAGVCPPKKSAQCLRYKKPECQSDWQCPGKKRCCPDTCGIKCLDPVDTPNPTRRKPGKCPVTYGQCLMLNPPNFCEMDGQCKRDLKCCMGMCGKSCVSPVKA | – | – | – | most extensive growth | significantly increased | equivalent to that seen with dibutyryl AMP (dbcAMP) | significantly increased | blocks MAG inhibition | significant increases | numerous GAP-43 positive axons | several of them extend beyond the lesion site | non-toxic
